Tests used:
[1] = target: T1, CLDN7 (UniProt O95471 1-211, limits assumed); assay: FACS on parental SW480 cells, which express CLDN7
T1 construct: whole, on cells; It is endogenous in the human SW480 cell line
T1 sequence (looked up): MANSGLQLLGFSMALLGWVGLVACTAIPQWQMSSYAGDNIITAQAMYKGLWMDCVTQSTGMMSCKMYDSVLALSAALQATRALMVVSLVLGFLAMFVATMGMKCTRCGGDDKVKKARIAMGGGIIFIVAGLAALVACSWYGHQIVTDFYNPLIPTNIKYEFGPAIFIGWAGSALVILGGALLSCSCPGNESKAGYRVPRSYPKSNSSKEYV
Procedure: (§1) A). Cell lysates derived from SW480 or CLDN-transfected SW480 were tested by Western-Blotting. B) FACS histograms of the binding 6F6C3 mAb (10 μg/mL-gray histogram) or control without 6F6C3 (dashed histogram) or irrelevant antibody 35A7 (black histogram) to the different CLDNs.
(§2) After transitory tranfection on SW480 cells of human cDNA clone of CLDN8 (sc320974, Origene technologies, USA) and murine cDNA clone of CLDN1 (IRAVp968A105D, LifeScience), we analysed by FACs cross-reactivity of 6F6C3 mAb.

[2] = target: T2, murine CLDN1 (murine, UniProt O88551 1-211); assay: FACS on SW480 cells transiently transfected with murine CLDN1
T2 construct: whole, on cells; also called mCLDN1
T2 sequence (looked up): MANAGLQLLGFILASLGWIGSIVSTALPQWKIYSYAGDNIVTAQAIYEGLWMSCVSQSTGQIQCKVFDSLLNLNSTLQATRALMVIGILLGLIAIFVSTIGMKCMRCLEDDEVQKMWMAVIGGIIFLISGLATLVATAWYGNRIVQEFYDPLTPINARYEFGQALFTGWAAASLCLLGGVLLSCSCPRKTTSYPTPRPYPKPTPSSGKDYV
Procedure: as §1, §2

[3] = target: T3, CLDN8 (human, UniProt P56748 1-225); assay: FACS on SW480 cells transiently transfected with human CLDN8
T3 construct: whole, on cells; also called human CLDN8
T3 sequence (looked up): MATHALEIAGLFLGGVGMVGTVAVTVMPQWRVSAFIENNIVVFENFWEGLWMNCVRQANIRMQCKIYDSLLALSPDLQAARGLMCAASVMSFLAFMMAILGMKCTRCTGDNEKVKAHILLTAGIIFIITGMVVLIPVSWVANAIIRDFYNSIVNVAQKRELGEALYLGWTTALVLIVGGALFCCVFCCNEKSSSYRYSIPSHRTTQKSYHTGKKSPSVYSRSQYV
Procedure: as §1, §2

Measured: binding result

B1: 6F6C3 mAb (antibody, V domains shown)
VH: QIQLVQSGPELKKPGETVRISCKASGYTFTTSGMQWLQKMPGKGLKWIGWINTHFGEPKYAEDFKGRFAFSLETSASTAYLQISNLKNEDTATYFCAGAGYYGSRYFDVWGAGTTVTVSS
VL: DIVMTQSQKFMSTSVGDRVSITCKASQNVGTAVAWYQQKPGQSPKLLIYSASNRYTGVPDRFTGSGSGTDFTLTISNMQSEDLADYFCQQYSSYPLTFGGGTKLEIK
notes: Murine hybridoma antibody; Used as purified mAb or as hybridoma supernatant; also called mAb6F6C3; murine anti-CLDN1 antibody (6F6C3)
no binding (tested: 10 µg/mL): [1] | [2] | [3]

Reference: patent US20160185856A1 (INSERM INSTITUT NATIONAL DE LA SANTE ET DE LA RECHERCHE …, published 2016)
